Results reported in patent US20140243227A1, “CULTURE MEDIA FOR STEM CELLS” (Koninklijke Nederlandse Akademie van Wetenschappen, priority 2011, published 2014).

Experiments:
pancreatic organoids = assay: Effect of Noggin on gene expression of pancreatic organoids in expansion medium; details: EGFRAN vs EGFRA medium
human colon crypts = assay: Screening of reagents for optimization of human intestinal organoids culture (plating efficiency); assay type: cell-based; details: First screening (WENR)
[1] = system: Barrett's Esophagus epithelium; assay: Culture of Barrett's esophagus (BE) organoids; details: FGF10 added to HISC condition
mouse organoids = assay: M cell development in organoids stimulated with RANK ligand; assay type: cell-based
Method: FIG. 48: A) Mouse organoids were cultured in the presence of different doses recombinant mouse RANKL for 72 h. mRNA expression levels for RANK, the transciption factor SpiB and the M cell-specific markers GP2 and AnnexinV were determined by qPCR.

| Molecule | Activity (plating efficiency compared with control after 4 days culture) (human colon crypts) | further results |
| --- | --- | --- |
| Noggin: BMP inhibitor (protein, UniProt Q13253 28-232, looked up) Noggin: QHYLHIRPAPSDNLPLVDLIEHPDPIFDPKEKDLNETLLRSLLGGHYDPGFMATSPPEDRPGGGGGAAGGAEDLAELDQLLRQRPSGAMPSEIKGLEFSEGLAQGKKQRLSKKLRRKLQMWLWSQTFCPVLYAWNDLGSRFWPRYVKVGSCFSKRSCSVPEGMVCKPSKSVHLTVLRWRCQRRGGQRCGWIPIQYPIISECKCSC |  | Lgr5 expression relative to organoids cultured without Noggin (pancreatic organoids): 2 fold |
| GDNF: growth factor (Peprotech) (protein, UniProt P39905 78-211, looked up) Glial cell line-derived …: SPDKQMAVLPRRERNRQAAAANPENSRGKGRRGQRGKNRGCVLTAIHLNVTDLGLGYETKEELIFRYCSGSCDAAETTYDKILKNLSRNRRLVSDKVGQACCRPIAFDDDLSFLDDNLVYHILRKHSAKRCGCI | 0 |  |
| Follistatin: growth factor (Peprotech) (protein, UniProt P19883 30-344, looked up) Follistatin: GNCWLRQAKNGRCQVLYKTELSKEECCSTGRLSTSWTEEDVNDNTLFKWMIFNGGAPNCIPCKETCENVDCGPGKKCRMNKKNKPRCVCAPDCSNITWKGPVCGLDGKTYRNECALLKARCKEQPELEVQYQGRCKKTCRDVFCPGSSTCVVDQTNNAYCVTCNRICPEPASSEQYLCGNDGVTYSSACHLRKATCLLGRSIGLAYEGKCIKAKSCEDIQCTGGKKCLWDFKVGRGRCSLCDELCPDSKSDEPVCASDNATYASECAMKEAACSSGVLLEVKHSGSCNSISEDTEEEEEDEDQDYSFPISSILEW | 0 |  |
| Cyr61: growth factor (Peprotech) (protein, UniProt O00622 25-381, looked up) CCN family member 1: TCPAACHCPLEAPKCAPGVGLVRDGCGCCKVCAKQLNEDCSKTQPCDHTKGLECNFGASSTALKGICRAQSEGRPCEYNSRIYQNGESFQPNCKHQCTCIDGAVGCIPLCPQELSLPNLGCPNPRLVKVTGQCCEEWVCDEDSIKDPMEDQDGLLGKELGFDASEVELTRNNELIAVGKGSSLKRLPVFGMEPRILYNPLQGQKCIVQTTSWSQCSKTCGTGISTRVTNDNPECRLVKETRICEVRPCGQPVYSSLKKGKKCSKTKKSPEPVRFTYAGCLSVKKYRPKYCGSCVDGRCCTPQLTRTVKMRFRCEDGETFSKNVMMIQSCKCNYNCPHANEAAFPFYRLFNDIHKFRD | 0 |  |
| BDNF: brain-derived neurotrophic factor (protein, UniProt P23560 19-247, looked up) Neurotrophic factor BDNF …: APMKEANIRGQGGLAYPGVRTHGTLESVNGPKAGSRGLTSLADTFEHVIEELLDEDQKVRPNEENNKDADLYTSRVMLSSQVPLEPPLLFLLEEYKNYLDAANMSMRVRRHSDPARRGELSVCDSISEWVTAADKKTAVDMSGGTVTVLEKVPVSKGQLKQYFYETKCNPMGYTKEGCRGIDKRHWNSQCRTTQSYVRALTMDSKKRIGWRFIRIDTSCVCTLTIKRGR | 0 |  |
| FGF10: human recombinant FGF10 (Peprotech) (protein, UniProt O15520 38-208, looked up) Fibroblast growth factor 10: QALGQDMVSPEATNSSSSSFSSPSSAGRHVRSYNHLQGDVRWRKLFSFTKYFLKIEKNGKVSGTKKENCPYSILEITSVEIGVVAVKAINSNYYLAMNKKGKLYGSKEFNNDCKLKERIEENGYNTYASFNWQHNGRQMYVALNGKGAPRRGQKTRRKNTSAHFLPMVVHS | 0 | Culture duration of BE organoids [1]: > 3 months |
| RANK ligand: RANK ligand (RANKL), recombinant (protein, UniProt O14788 140-317, looked up) Tumor necrosis factor ligand …: IRAEKAMVDGSWLDLAKRSKLEAQPFAHLTINATDIPSGSHKVSLSSWYHDRGWAKISNMTFSNGKLIVNQDGFYYLYANICFRHHETSGDLATEYLQLMVYVTKTSIKIPSSHTLMKGGSTKYWSGNSEFHFYSINVGGFFKLRSGEEISIEVSNPSLLDPDQDATYFGAFKVRDID |  | Development of M cells (mouse organoids): can develop into M cells |
